In patent publication US20240294645A1 (HANGZHOU SUMGEN BIOTECH, published 2024):
Each block holds one binder with its values, some of them ahead of it.

How the values were obtained:
[1] = molecular target: T1, VEGF 121 Protein, Human, Recombinant (Sino Biological) (human, UniProt P15692-9 27-147); experiment: competition ELISA, VEGF121 coated, competitor biotin-labeled VEGFR2
T1 sequence (looked up): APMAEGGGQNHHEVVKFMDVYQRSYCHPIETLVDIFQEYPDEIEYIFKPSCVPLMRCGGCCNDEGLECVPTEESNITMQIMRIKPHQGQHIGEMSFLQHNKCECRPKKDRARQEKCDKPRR

[2] = molecular target: VEGF165 Protein, Human, Cynomolgus, Recombinant, HPLC-verified (Sino Biological) (Human, Cynomolgus, UniProt P15692-4 27-191); experiment: competition ELISA, VEGF165 coated, competitor biotin-labeled VEGFR2
Protocol: (§1) 100 μL of 2N H₂SO4 stop solution was added to each well to terminate the substrate reaction.

[3] = molecular target: T2, Biotinylated Human VEGF165 Protein, His, Avitag (Acro Biosystems) (human, UniProt P15692-4 27-191, biotin-labeled (site not stated; Avitag)); experiment: competition ELISA, VEGFR1 coated (competitor), biotin-labeled VEGF165 detected
T2 construct: also called biotin-labeled VEGF165; not shown: His tag and Avitag
Protocol: as §1

[4] = molecular target: T2, Biotinylated Human VEGF165 Protein, …; experiment: bridging ELISA: PD-L1 coated, sample, then biotin-labeled VEGF165

- IC50 [1]: 3.29 nM
- IC50 [2]: 3.5 nM
- IC50 [3]: 5.05 nM
B1: bispecific fusion protein 12VF2 (bispecific antibody, human IgG1, kappa)
light: EIVLTQSPGTLSLSPGERATLSCRASQRVSSSYLAWYQQKPGQAPRLLIYDASSRATGIPDRFSGSGSGTDFTLTISRLEPEDFAVYYCQQYGSLPWTFGQGTKVEIKRTVAAPSVFIFPPSDEQLKSGTASVVCLLNNFYPREAKVQWKVDNALQSGNSQESVTEQDSKDSTYSLSSTLTLSKADYEKHKVYACEVTHQGLSSPVTKSFNRGEC
heavy: EVQLVESGGGLVQPGGSLRLSCAASGFTFSRYWMSWVRQAPGKGLEWVANIKQDGSEKYYVDSVKGRFTISRDNAKNSLYLQMNSLRAEDTAVYYCAREGGWFGELAFDYWGQGTLVTVSSASTKGPSVFPLAPSSKSTSGGTAALGCLVKDYFPEPVTVSWNSGALTSGVHTFPAVLQSSGLYSLSSVVTVPSSSLGTQTYICNVNHKPSNTKVDKRVEPKSCDKTHTCPPCPAPEFEGGPSVFLFPPKPKDTLMISRTPEVTCVVVDVSHEDPEVKFNWYVDGVEVHNAKTKPREEQYNSTYRVVSVLTVLHQDWLNGKEYKCKVSNKALPASIEKTISKAKGQPREPQVYTLPPSREEMTKNQVSLTCLVKGFYPSDIAVEWESNGQPENNYKTTPPVLDSDGSFFLYSKLTVDKSRWQQGNVFSCSVMHEALHNHYTQKSLSLSPGKGGGGSGGGGSSDTGRPFVEMYSEIPEIIHMTEGRELVIPCRVTSPNITVTLKKFPLDTLIPDGKRIIWDSRKGFIISNATYKEIGLLTCEATVNGHLYKTNYLTHRQTNTIIDVVLSPSHGIELSVGEKLVLNCTARTELNVGIDFNWEYPSSKHQHKKLVNRDLKTQSGSEMKKFLSTLTIDGVTRSDQGLYTCAASSGLMTKKNSTFVRVHE

- binding result [4]: no binding
B2: SG1202 (printed 'a PD-L2 antibody 1'; used as PD-L1 antibody, apparently PD-L1 antibody 2) (antibody, V domains shown)
VH: EVQLVESGGGLVQPGGSLRLSCAASGFTFSRYWMSWVRQAPGKGLEWVANIKQDGSEKYYVDSVKGRFTISRDNAKNSLYLQMNSLRAEDTAVYYCAREGGWFGELAFDYWGQGTLVTVSS
VL: EIVLTQSPGTLSLSPGERATLSCRASQRVSSSYLAWYQQKPGQAPRLLIYDASSRATGIPDRFSGSGSGTDFTLTISRLEPEDFAVYYCQQYGSLPWTFGQGTKVEIK
notes: Only variable regions are tied to SG1202; also called PD-L1 antibody SG1202; antibody SG1202
